T1: EpCAM (UniProt P16422 24-265)
T1 construct: also called biotinylated EpCAM
T1 sequence (looked up): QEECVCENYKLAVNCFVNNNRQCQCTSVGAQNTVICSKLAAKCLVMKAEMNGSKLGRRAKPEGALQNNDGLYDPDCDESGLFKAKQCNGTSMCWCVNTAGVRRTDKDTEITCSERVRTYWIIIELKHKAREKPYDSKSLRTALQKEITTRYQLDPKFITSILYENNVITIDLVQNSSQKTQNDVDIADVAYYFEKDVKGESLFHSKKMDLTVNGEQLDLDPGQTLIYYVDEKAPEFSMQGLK

B1: AM_4109-4126 (bispecific antibody)
heavy 1: not shown
light: DIQMTQSPSSLSASVGDRVTITCRASQSISSYLNWYQEKPGKAPKLLIYAASSLQSGVPSRFSGSGSGTDFTLTISSLQPEDFATYYCQQYGRNPPTFGQGTKLEIKRTVAAPSVFIFPPSDEQLKSGTASVVCYLNNFYPREAKVQWKVDNALQSGNSQESVTEQDSKDSTYSLWSTLTLSKADYEKHKVYACEVTHQGLSSPVTKSFNRGEC
heavy 2: EVQLLEQSGAELVRPGTSVKISCKASGYAFTNYWLGWVKERPGHGLEWIGDIFPGSGNIHYNEKFKGKATLTADKSSSTAYMQLSSLTFEDSAVYFCARLRNWDEPMDYWGQGTTVTVSSASTKGPSVFPLAPSSKSTSGGTAALGCLVKDYFPEPVTVSWNSGALTSGVHTFPAVLQSSGLISLSSVVEVPSSSLGTQTYICNVNHKPSNTKVDKKVEPKSC
notes: AC_05293 backbone; also called double mutant I126A + Y180I; copies: 2 + 2 + 2
B2: AM_4109-4131 (bispecific antibody)
heavy 1: not shown
light: DIQMTQSPSSLSASVGDRVTITCRASQSISSYLNWYQEKPGKAPKLLIYAASSLQSGVPSRFSGSGSGTDFTLTISSLQPEDFATYYCQQYGRNPPTFGQGTKLEIKRTVAAPSVFIFPPSDEQLKSGTASVVCYLNNFYPREAKVQWKVDNALQSGNSQESVTEQDSKDSTYSLWSTLTLSKADYEKHKVYACEVTHQGLSSPVTKSFNRGEC
heavy 2: EVQLLEQSGAELVRPGTSVKISCKASGYAFTNYWLGWVKERPGHGLEWIGDIFPGSGNIHYNEKFKGKATLTADKSSSTAYMQLSSLTFEDSAVYFCARLRNWDEPMDYWGQGTTVTVSSASTKGPSVFPLAPSSKSTSGGTAALGCLVKDYFPEPVTVSWNSGALTSGVHTFPAVLQSSGLWSLSSVVEVPSSSLGTQTYICNVNHKPSNTKVDKKVEPKSC
notes: AC_05293 backbone; also called double mutant I126A + Y180W; copies: 2 + 2 + 2
B3: AM_4109-4133 (bispecific antibody)
heavy 1: not shown
light: DIQMTQSPSSLSASVGDRVTITCRASQSISSYLNWYQEKPGKAPKLLIYAASSLQSGVPSRFSGSGSGTDFTLTISSLQPEDFATYYCQQYGRNPPTFGQGTKLEIKRTVAAPSVFIFPPSDEQLKSGTASVVCYLNNFYPREAKVQWKVDNALQSGNSQESVTEQDSKDSTYSLWSTLTLSKADYEKHKVYACEVTHQGLSSPVTKSFNRGEC
heavy 2: EVQLLEQSGAELVRPGTSVKISCKASGYAFTNYWLGWVKERPGHGLEWIGDIFPGSGNIHYNEKFKGKATLTADKSSSTAYMQLSSLTFEDSAVYFCARLRNWDEPMDYWGQGTTVTVSSASTKGPSVFPLAPSSKSTSGGTAALGCLVKDYFPEPVTVSWNSGALTSGVHTFPAVLQSSGLYSLTSVVEVPSSSLGTQTYICNVNHKPSNTKVDKKVEPKSC
notes: AC_05293 backbone; also called double mutant I126A + S183T; copies: 2 + 2 + 2
B4: AM_4109-4134 (bispecific antibody)
heavy 1: not shown
light: DIQMTQSPSSLSASVGDRVTITCRASQSISSYLNWYQEKPGKAPKLLIYAASSLQSGVPSRFSGSGSGTDFTLTISSLQPEDFATYYCQQYGRNPPTFGQGTKLEIKRTVAAPSVFIFPPSDEQLKSGTASVVCYLNNFYPREAKVQWKVDNALQSGNSQESVTEQDSKDSTYSLWSTLTLSKADYEKHKVYACEVTHQGLSSPVTKSFNRGEC
heavy 2: EVQLLEQSGAELVRPGTSVKISCKASGYAFTNYWLGWVKERPGHGLEWIGDIFPGSGNIHYNEKFKGKATLTADKSSSTAYMQLSSLTFEDSAVYFCARLRNWDEPMDYWGQGTTVTVSSASTKGPSVFPLAPSSKSTSGGTAALGCLVKDYFPEPVTVSWNSGALTSGVHTFPAVLQSSGLYSLSSVVEGPSSSLGTQTYICNVNHKPSNTKVDKKVEPKSC
notes: AC_05293 backbone; also called double mutant I126A + V188G; copies: 2 + 2 + 2
B5: AM_4120-4126 (bispecific antibody)
heavy 1: not shown
light: DIQMTQSPSSLSASVGDRVTITCRASQSISSYLNWYQEKPGKAPKLLIYAASSLQSGVPSRFSGSGSGTDFTLTISSLQPEDFATYYCQQYGRNPPTFGQGTKLEIKRTVAAPSVFIFPPSDEQLKSGTASVVCYLNNFYPREAKVQWKVDNALQSGNSQESVTEQDSKDSTYSLWSTLTLSKADYEKHKVYACEVTHQGLSSPVTKSFNRGEC
heavy 2: EVQLLEQSGAELVRPGTSVKISCKASGYAFTNYWLGWVKERPGHGLEWIGDIFPGSGNIHYNEKFKGKATLTADKSSSTAYMQLSSLTFEDSAVYFCARLRNWDEPMDYWGQGTTVTVSSASTKGPSVFPLAPSSKSTSGGTAALGCLVKDYFPEPVTVSWNSGALTSGVHTFPAVLQSSGLISLSSVVEVPSSSLGTQTYICNVNHKPSNTKVDKKVEPKSC
notes: AC_05293 backbone; also called double mutant A111V + Y180I; copies: 2 + 2 + 2
B6: AM_4120-4131 (bispecific antibody)
heavy 1: not shown
light: DIQMTQSPSSLSASVGDRVTITCRASQSISSYLNWYQEKPGKAPKLLIYAASSLQSGVPSRFSGSGSGTDFTLTISSLQPEDFATYYCQQYGRNPPTFGQGTKLEIKRTVAAPSVFIFPPSDEQLKSGTASVVCYLNNFYPREAKVQWKVDNALQSGNSQESVTEQDSKDSTYSLWSTLTLSKADYEKHKVYACEVTHQGLSSPVTKSFNRGEC
heavy 2: EVQLLEQSGAELVRPGTSVKISCKASGYAFTNYWLGWVKERPGHGLEWIGDIFPGSGNIHYNEKFKGKATLTADKSSSTAYMQLSSLTFEDSAVYFCARLRNWDEPMDYWGQGTTVTVSSASTKGPSVFPLAPSSKSTSGGTAALGCLVKDYFPEPVTVSWNSGALTSGVHTFPAVLQSSGLWSLSSVVEVPSSSLGTQTYICNVNHKPSNTKVDKKVEPKSC
notes: AC_05293 backbone; also called double mutant A111V + Y180W; copies: 2 + 2 + 2
B7: AM_4120-4133 (bispecific antibody)
heavy 1: not shown
light: DIQMTQSPSSLSASVGDRVTITCRASQSISSYLNWYQEKPGKAPKLLIYAASSLQSGVPSRFSGSGSGTDFTLTISSLQPEDFATYYCQQYGRNPPTFGQGTKLEIKRTVAAPSVFIFPPSDEQLKSGTASVVCYLNNFYPREAKVQWKVDNALQSGNSQESVTEQDSKDSTYSLWSTLTLSKADYEKHKVYACEVTHQGLSSPVTKSFNRGEC
heavy 2: EVQLLEQSGAELVRPGTSVKISCKASGYAFTNYWLGWVKERPGHGLEWIGDIFPGSGNIHYNEKFKGKATLTADKSSSTAYMQLSSLTFEDSAVYFCARLRNWDEPMDYWGQGTTVTVSSASTKGPSVFPLAPSSKSTSGGTAALGCLVKDYFPEPVTVSWNSGALTSGVHTFPAVLQSSGLYSLTSVVEVPSSSLGTQTYICNVNHKPSNTKVDKKVEPKSC
notes: AC_05293 backbone; also called double mutant A111V + S183T; copies: 2 + 2 + 2
B8: AM_4120-4134 (bispecific antibody)
heavy 1: not shown
light: DIQMTQSPSSLSASVGDRVTITCRASQSISSYLNWYQEKPGKAPKLLIYAASSLQSGVPSRFSGSGSGTDFTLTISSLQPEDFATYYCQQYGRNPPTFGQGTKLEIKRTVAAPSVFIFPPSDEQLKSGTASVVCYLNNFYPREAKVQWKVDNALQSGNSQESVTEQDSKDSTYSLWSTLTLSKADYEKHKVYACEVTHQGLSSPVTKSFNRGEC
heavy 2: EVQLLEQSGAELVRPGTSVKISCKASGYAFTNYWLGWVKERPGHGLEWIGDIFPGSGNIHYNEKFKGKATLTADKSSSTAYMQLSSLTFEDSAVYFCARLRNWDEPMDYWGQGTTVTVSSASTKGPSVFPLAPSSKSTSGGTAALGCLVKDYFPEPVTVSWNSGALTSGVHTFPAVLQSSGLYSLSSVVEGPSSSLGTQTYICNVNHKPSNTKVDKKVEPKSC
notes: AC_05293 backbone; also called double mutant A111V + V188G; copies: 2 + 2 + 2

Legend:
[1] = molecular target: T1, EpCAM; assay: Octet BLI; biotinylated EpCAM on streptavidin sensor;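 note: octet RED96 kinetics: 300 s association, then 300 s dissociation in 1x Kinetic buffer, buffer-blank referenced, Savitzky-Golay smoothed, fitted to a 1:1 Langmuir binding model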
Experimental: (§1) Kinetic measurements were performed using the Octet RED96 platform (ForteBIo). […] Association was followed for 300 seconds followed by dissociation in 1x Kinetic buffer for 300 seconds. Sensor tips were regenerated using 10 mM glycine, pH 1.7. Data generated were referenced by subtracting a parallel buffer blank, the baseline was aligned with the γ-axis, inter-step correlation by alignment against dissociation was performed and the data were smoothed by a Savitzky-Golay filter in the data analysis software (v.9.0.0.14). The processed data were fitted using a 1:1 Langmuir binding model with X2 as a measurement of fitting accuracy.
(§2) Binding affinities of all the variants were determined using Octet (Pall ForteBio).

[2] = molecular target: T2, CD40 (UniProt P25942 21-193); assay: Octet BLI; biotinylated CD40 on streptavidin sensor;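 note: octet RED96 biolayer interferometry, 300 s association then 300 s dissociation in kinetic buffer, buffer-blank referenced, fitted with a 1:1 Langmuir binding model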
T2 construct: also called biotinylated CD40; CD40 antigen
Experimental: as §1, §2

[3] = molecular target: T2, CD40; assay: dual ELISA: CD40 coated, bsAb titrated, biotinylated EpCAM + streptavidin-HRP; signal needs both targets
Experimental: Dual ELISA Plates were coated with 0.5 μg/mL CD40 in PBS over night at 4° C. After washing in PBS/0.05% Tween 20 (PBST), the plates were blocked with PBS/2% BSA for at least 30 minutes at room temperature before being washed again. Samples serially diluted in PBS/0.5% BSA were then added and allowed to bind for at least 1 hour at room temperature. […] Dual complexed bsAb with CD40 and EpCAM were detected with HRP-labelled streptavidin. SuperSignal Pico Luminescent was used as substrate and luminescence signals were measured using Fluostar Optima.

T2 sequence (P25942 21-193 limits assumed): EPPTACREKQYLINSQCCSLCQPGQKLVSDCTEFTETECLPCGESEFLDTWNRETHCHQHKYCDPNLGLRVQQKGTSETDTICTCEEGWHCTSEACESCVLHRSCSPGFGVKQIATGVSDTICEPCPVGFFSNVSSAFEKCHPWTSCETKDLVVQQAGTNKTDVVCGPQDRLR

| Binder | Kd [1] [nM] | koff [1] [s⁻¹] | kon [1] [M⁻¹ s⁻¹] | Kd [2] [nM] | koff [2] [s⁻¹] | kon [2] [M⁻¹ s⁻¹] | EC50 (read off the curve) [3] [nM] |
| --- | --- | --- | --- | --- | --- | --- | --- |
| B1 | 4.3 | 0.00077 | 180000 | 1.2 | 0.0006 | 480000 | ~0.9 |
| B2 | 4.4 | 0.00081 | 180000 | 0.89 | 0.00072 | 800000 | ~0.9 |
| B3 | 4.6 | 0.00092 | 200000 | 0.73 | 0.001 | 1.4e+06 | ~0.9 |
| B4 | 4.7 | 0.00098 | 210000 | 0.83 | 0.00092 | 1.1e+06 | ~0.9 |
| B5 | 5.6 | 0.0013 | 230000 | 0.86 | 0.001 | 1.2e+06 | – |
| B6 | 5.3 | 0.0015 | 280000 | 1.1 | 0.00097 | 920000 | – |
| B7 | 5.7 | 0.0014 | 240000 | 0.9 | 0.0011 | 1.2e+06 | – |
| B8 | 5.8 | 0.0014 | 250000 | 0.91 | 0.0011 | 1.2e+06 | – |
